Target: recombinant Small basic protein (rSbp) (S. epidermidis)
Assay: ELISA; competition; rSbp (150 μg/ml in PBS) pre-incubated with soluble rDomain-B (0.4-100 μg/ml) for 1 h at 4°C, then loaded into rDomain-B-coated wells; inhibition = (1 - A405 with rDomain-B / A405 without) x 100

## recombinantly expressed Aap domain-B (rDomain-B) (domain or fragment)
  percent inhibition of rSbp binding to immobilized rDomain-B: 80%

— publication PMC4370877
